The target in test [1] is T1, human CD20 (human, UniProt P11836 1-297).
T1 construct: whole, on cells; also called CD20 antigen; Bp35
T1 sequence (looked up): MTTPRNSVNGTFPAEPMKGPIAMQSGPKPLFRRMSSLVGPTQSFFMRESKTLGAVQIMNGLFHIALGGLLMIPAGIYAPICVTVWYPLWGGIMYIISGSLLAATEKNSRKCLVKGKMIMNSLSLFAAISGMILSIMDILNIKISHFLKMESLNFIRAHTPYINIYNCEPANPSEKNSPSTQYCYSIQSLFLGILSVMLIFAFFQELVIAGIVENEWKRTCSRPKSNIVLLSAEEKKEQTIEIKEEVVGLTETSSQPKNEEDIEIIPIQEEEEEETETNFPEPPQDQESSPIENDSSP
The test is described as follows: Scatchard analysis, cold antibody against 125I-2H7.v16 on WIL2-S cells, n=4.
Method: All dilutions were performed in binding assay buffer (DMEM media containing 1% bovine serum albumin, 25 mM HEPES pH 7.2, and 0.01% sodium azide). […] WIL2-S cells (60,000 cells in 0.025 mL) were then added. The plate was sealed and incubated at room temperature for 24 hours, then centrifuged for 15 min at 3,500 RPM. The supernatant was then aspirated and the cell pellet was washed and centrifuged. The supernatant was again aspirated, and the pellets were dissolved in 1N NaOH and transferred to tubes for gamma counting.

The target in test [2] is T1, human CD20. The test is described as follows: cell-based ELISA on WIL2-S cells; conc. 2H7.v16 / conc. variant. A general note: ELISA stands for enzyme-linked immunosorbent assay.
Method: To measure relative binding affinities to the CD20 antigen, a cell-based ELISA assay was developed. […] The cells were washed with PBS containing 1% fetal bovine serum (FBS) (assay buffer) and seeded at 250-300,000 cell/well in 96-well round bottom plates (Nunc, Roskilde, Denmark). […] The plates were buried in ice and incubated for 45 min. To remove the unbound antibody, 0.1 mL assay buffer was added to the wells. Plates were centrifuged and supernatants were removed. Cells were washed two more times with 0.2 mL assay buffer. Antibody bound to the plates was detected by adding peroxidase-conjugated goat anti-human Fc antibody (Jackson ImmunoResearch, West Grove, Pa.) to the plates. After a 45-min incubation, cells were washed as described before. TMB substrate (3,3′,5,5′-tetramethyl benzidine; Kirkegaard & Perry Laboratories, Gaithersburg, Md.) was added to the plates. The reaction was stopped by adding 1 M phosphoric acid. Titration curves were fit with a four-parameter nonlinear regression curve-fitting program ([…] ™, Synergy software, Reading, Pa.). The absorbance at the midpoint of the titration curve (mid-OD) and its corresponding concentration of the standard were determined. Then the concentration of each variant at this mid-OD was determined, and the concentration of the standard was divided by that of each variant.

For orientation: Kd means the free concentration of one partner at which half of the binding sites on the other are occupied at equilibrium, for simple one-to-one binding.

B1: 2H7.v73 (antibody, IgG1)
heavy: not shown
light: DIQMTQSPSSLSASVGDRVTITCRASSSVSYLHWYQQKPGKAPKPLIYAPSNLASGVPSRFSGSGSGTDFTLTISSLQPEDFATYYCQQWSFNPPTFGQGTKVEIKRTVAAPSVFIFPPSDEQLKSGTASVVCLLNNFYPREAKVQWKVDNALQSGNSQESVTEQDSKDSTYSLSSTLTLSKADYEKHKVYACEVTHQGLSSPVTKSFNRGEC
notes: IgG1; changes relative to 2H7.v16; also called 2H7 version 73
Regarding B1, the Kd in test [1] amounted to 1.22 nM.

B2: 2H7.v75 (antibody, IgG1)
heavy: EVQLVESGGGLVQPGGSLRLSCAASGYTFTSYNMHWVRQAPGKGLEWVGAIYPGNGDTSYNQKFKGRFTISVDKSKNTLYLQMNSLRAEDTAVYYCARVVYYSASYWYFDVWGQGTLVTVSSASTKGPSVFPLAPSSKSTSGGTAALGCLVKDYFPEPVTVSWNSGALTSGVHTFPAVLQSSGLYSLSSVVTVPSSSLGTQTYICNVNHKPSNTKVDKKVEPKSCDKTHTCPPCPAPELLGGPSVFLFPPKPKDTLMISRTPEVTCVVVDVSHEDPEVKFNWYVDGVEVHNAKTKPREEQYNATYRVVSVLTVLHQDWLNGKEYKCKVSNKALPAPIAATISKAKGQPREPQVYTLPPSREEMTKNQVSLTCLVKGFYPSDIAVEWESNGQPENNYKTTPPVLDSDGSFFLYSKLTVDKSRWQQGNVFSCSVMHEALHNHYTQKSLSLSPGK
light: DIQMTQSPSSLSASVGDRVTITCRASSSVSYLHWYQQKPGKAPKPLIYAPSNLASGVPSRFSGSGSGTDFTLTISSLQPEDFATYYCQQWSFNPPTFGQGTKVEIKRTVAAPSVFIFPPSDEQLKSGTASVVCLLNNFYPREAKVQWKVDNALQSGNSQESVTEQDSKDSTYSLSSTLTLSKADYEKHKVYACEVTHQGLSSPVTKSFNRGEC
notes: IgG1; changes relative to 2H7.v16; also called 2H7 version 75
Molecule B2 had an equilibrium dissociation constant (Kd) in test [1] of 1.09 nM.

B3: 2H7.v166 (antibody, human IgG1, kappa, V domains shown)
VH: EVQLVESGGGLVQPGGSLRLSCAASGYTFTSYNMHWVRQAPGKGLEWVGAIYPGNGDTSYNQKFKGRFTISVDKSKNTLYLQMNSLRAEDTAVYYCARVVYYGGDWYFDVWGQGTLVTVSS
VL: DIQMTQSPSSLSASVGDRVTITCRASSSVSYMHWYQQKPGKAPKPLIYAPSNLASGVPSRFSGSGSGTDFTLTISSLQPEDFATYYCQQWSFNPPTFGQGTKVEIKR
notes: IgG1; changes relative to 2H7.v16; Y100b is deleted (written as a change to nothing); also called 2H7 version 166
Regarding B3, the Relative binding in test [2] came to 0.99 ratio.

(Values after US20070031331A1 (Genentech, published 2007).)
